Experimental data taken from patent US20110250207A1 (OREGON HEALTH AND SCIENCE UNIVERSITY, published 2011).

B1: activated factor XII (protein)
chain: IPPWEAPKEHKYKAEEHTVVLTVTGEPCHFPFQYHRQLYHKCTHKGRPGPQPWCATTPNFDQDQRWGYCLEPKKVKDHCSKHSPCQKGGTCVNMPSGPHCLCPQHLTGNHCQKEKCFEPQLLRFFHKNEIWYRTEQAAVARCQCKGPDAHCQRLASQACRTNPCLHGGRCLEVEGHRLCHCPVGYTGAFCDVDTKASCYDGRGLSYRGLARTTLSGAPCQPWASEATYRNVTAEQARNWGLGGHAFCRNPDNDIRPWCFVLNRDRLSWEYCDLAQCQTPTQAAPPTPVSPRLHVPLMPAQPAPPKPQPTTRTPPQSQTPGALPAKREQPPSLTRNGPLSCGQRLRKSLSSMTRVVGGLVALRGAHPYIAALYWGHSFCAGSLIAPCWVLTAAHCLQDRPAPEDLTVVLGQERRNHSCEPCQTLAVRSYRLHEAFSPVSYQHDLALLRLQEDADGSCALLSPYVQPVCLPSGAARPSETTLCQVAGWGHQFEGAEEYASFLQEAQVPFLSLERCSAPDVHGSSILPGMLCAGFLEGGTDACQGDSGGPLVCEDQAAERRLTLQGIISWGSGCGDRNKPGVYTDVAYYLAWIREHTVS
B2: monoclonal antibody 14E11 (antibody, V domains shown)
VH: QVQLEESGPGLVAPSQSLSITCTVSGFSLTGYGIYWVRQPPGKGLEWLGMIWGDGRTDYNSALKSRLSISKDNSKSQVFLKMNSLQTDDTARYYCARDYYGSKDYWGQGTTLTVSS
VL: DIVMTQSHKFMSTSVGDRVSITCKASQDVSTAVAWYQQKPGQSPKLLIYLTSYRNTGVPDRFTGSGSGTDFTFTISSVQAEDLAVYYCQQHYKTPYSFGGGTKLERLR
notes: also called anti-murine fXI IgG 14E11; anti-fXI IgG 14E11

Key:
[1] = molecular target: fXI with Lys^83 and Gln^84 replaced with alanine, P03951
murine factor XI = molecular target: T1, murine factor XI (murine, UniProt Q91Y47 19-624); experiment: immunoblot of recombinant proteins with 14E11 (FIG. 10A)
T1 construct: also called murine fXI (M); recombinant murine fXI

cow fXI = molecular target: T2, cow fXI (cattle, UniProt Q5NTB3 19-625); experiment: immunoprecipitation from plasma with 14E11 beads, western blot with biotinylated 14E11
T2 construct: mature; Endogenous protein immunoprecipitated from plasma; also called cattle fXI
Experimental: Plasma was obtained from human, cattle, horse, pig, rabbit, raccoon, tiger, baboon, cat, chicken, dog African elephant and llama subjects, and serum was obtained from anteater. Plasma from a fXI-deficient human subject was used as a negative control. Plasma or serum (500 μl) was collected into sodium citrate and mixed with 500 μl Tris-HCl. […] The beads were washed once with 1 ml Tris-HCl, then eluted with 50 μl of non-reducing SDS-sample buffer.

Row | Binder | rate of activation in solution relative to fXI^WT [1] | specific activity in a contact activation initiated clotting assay relative to fXI^WT [1] | binding result (murine factor XI) | binding result (cow fXI)
1 | B1 | about 65% of the rate of fXI^WT | 100-150% of the specific activity of fXI^WT |  | 
2 | B2 |  |  | binds | binds
